Measured values as given in patent US20210115146A1 (WUXI BIOLOGICS IRELAND, published 2021).
Numbering of substitutions follows the chain as printed. Values joined by “and” are separate entries in the source; they are usually repeats but may differ in a detail not shown here. Identical values can stand only once. Values belong to the binder of their own block, whether it stands above or below them.

Columns and labels:
[1] = target: T1, human EGFR (cell surface) (human, UniProt P00533 25-1210); assay: FACS competition, competitor W5626-2C2-z22; upper panel 'Binning with W5626-2C2-z22'; cells not named on the sheet, A431 in the example
T1 construct: whole, on cells; also called W562-CHO-K1.hPro1.E9 cells; A431 cells

[2] = target: T2, human EGFRvIII (cell surface) (human, UniProt P00533 25-1210); assay: FACS on EGFRvIII transfected cells, anti-c-Myc-biotin and streptavidin-PE
T2 construct: whole, on cells; also called hEGFRIII; EGFR variant III

[3] = target: T1, human EGFR (cell surface); assay: FACS competition, competitor W5626-2C10-z5; lower panel 'Binning with W5626-2C10-z5'; cells not named on the sheet, A431 in the example
HSA [4] = target: T3, HSA (UniProt P02768 25-609); assay: ELISA, antigen coated at 2 µg/mL, anti-cMyc-HRP detection
Experimental: (§1) Non-specific binding ELISA was performed in 96-well high binding plates (Nunc-Immuno Plate, Thermo Scientific). The plate was coated with various antigens at 2 μg/mL overnight at 4° C. […] The plates were subsequently incubated with the secondary antibody Goat anti-cMyc-HRP (Bethyl) for additional 1 hour. The HRP signal was detected by adding TMB substrate and the reaction was stopped after 12 minutes using 2M HCl. The absorbance at 450 nm was read using a microplate reader (Molecular Device). All incubation steps were performed at room temperature. The plate was washed with PBST (0.05% Tween20-PBS) between each step.

HER3.his [5] = target: T4, HER3.his (Homo sapiens (Human), UniProt P21860 20-643); assay: as above
Experimental: as §1

4-1BB.his [6] = target: T5, 4-1BB.his (Homo sapiens (Human), UniProt Q07011 24-186); assay: as above
Experimental: as §1

CD3.his = assay: non-specific binding ELISA, 10 µg/ml VHH on coated antigen
Experimental: as §1

VEGF.his = assay: as above
Experimental: as §1

HSA [7] = target: T3, HSA; assay: as above
Experimental: as §1

CTLA4.his = assay: as above
Experimental: as §1

W317-hPro1.ECD.his = assay: as above
Experimental: as §1

CD40 = assay: as above
Experimental: as §1

HER3.his [8] = target: T4, HER3.his; assay: as above
Experimental: as §1

CD22.his = assay: as above
Experimental: as §1

Factor Eight = assay: as above
Experimental: as §1

FGFR.his = assay: as above
Experimental: as §1

4-1BB.his [9] = target: T5, 4-1BB.his; assay: as above
Experimental: as §1

OX40.his = assay: as above
Experimental: as §1

CD147 = assay: as above
Experimental: as §1

PD-1.his = assay: as above
Experimental: as §1

[10] = target: T1, human EGFR (cell surface); assay: FACS competition with EGF-biotin (50 ng/ml) on A431 cells
Experimental: EGFR-expressing A431 cells were routinely maintained in DMEM containing 10% FBS, 10 mM HEPES and L-glutamine. 10⁵ cells per well were added to each well of a 96-well plate and centrifuged at 210 g for 5 minutes at 4° C. before the supernatant was removed. Serial dilutions of test antibodies were added to the pelleted cells and incubated for 1 hour at 4° C. […] MFI of the cells was measured by flow cytometry and analyzed by FlowJo.

[11] = target: T6, Macaca fascicularis EGFR (cell surface) (Macaca fascicularis, UniProt A0A2K5WK39 25-1210); assay: FACS on cells expressing monkey EGFR
T6 construct: whole, on cells; also called monkey EGFR; cyno EGFR
Experimental: (§2) The binding of antibodies to cell surface EGFR was assessed by FACS with EGFR transfected cells and A431 cell line, which over expresses human EGFR. 1×10⁵ cells/well were plated in a 96-well plate and centrifuged at 210 g for 5 minutes at 4° C. After removing the supernatant, the cell pellets were re-suspended with serial dilutions of testing purified antibodies in 1% BSA-PBS and incubated for 1 hour at 4° C., followed by incubation with FITC conjugated goat anti-human IgG (Jackson ImmunoResearch) at 4° C. for 1 hour. Two times of washing with 200 μl/well 1% BSA-PBS were applied between each step. Finally, the cells were resuspended in 100 μl 1% BSA-PBS for flow cytometry analysis (Intellicyt).

[12] = target: T7, human EGFR ECD protein (W562-hPro1.ECD.his) (human, UniProt P00533 25-645); assay: SPR (ProteOn XPR36), antibody captured by anti-human IgG Fc, EGFR ECD.his as analyte
T7 construct: extracellular domain; Made in HEK293 cells
Experimental: Each antibody was captured on an anti-human IgG Fc antibody immobilized GLM sensor chip (Bio-Rad). W562-hPro1.ECD.his at different concentrations was injected over the sensor chip at a flow rate of 100 uL/min for an association phase of 240 s, followed by 1800 s dissociation. The chip was regenerated by 10 mM glycine (pH 1.5) after each binding cycle. The sensorgrams of blank surface and buffer channel were subtracted from the test sensorgrams. The experimental data was fitted by 1:1 binding model using Langmiur analysis. Molecular weight of 85 kDa was used to calculate the molar concentration of analyte.

[13] = target: T8, mouse EGFR (cell surface) (mouse, UniProt Q01279 25-1210); assay: FACS affinity on transfected cells, quantitative beads
T8 construct: whole, on cells; also called W562-CHO-K1.mProl.F3 cells
Experimental: (§3) Human, cyno, mouse EGFR and human EGFRvIII transfected cells were transferred in to 96-well U-bottom plates (BD) at a density of 5×10⁴ cells/well, respectively. Testing antibodies were 1:3.16-fold serially diluted in 1% BSA-PBS and incubated with the cells at 4° C. for 1 hr. The secondary antibody, Alexa647 conjugated goat anti-human IgG Fc (Jackson Immunoresearch Lab), was added to resuspended cells and incubated at 4° C. in the dark for 1 hr. The cells were then washed once and resuspended in PBS with 1% BSA, and analyzed by flow cytometery (BD). Fluorescence intensity was converted to bound molecules/cell based on the quantitative beads (Quantum™ MESF Kits, Bangs Laboratories). KD was calculated using Graphpad Prism5.

[14] = target: T1, human EGFR (cell surface); assay: as above
Experimental: as §3

[15] = target: T2, human EGFRvIII (cell surface); assay: as above
Experimental: as §3

[16] = target: T6, Macaca fascicularis EGFR (cell surface); assay: as above
Experimental: as §3

[17] = target: T8, mouse EGFR (cell surface); assay: FACS on cells expressing mouse EGFR
Experimental: as §2

[18] = target: T1, human EGFR (cell surface); assay: cell-based or functional assay
[19] = target: T1, human EGFR (cell surface); assay: FACS binding to A431 cells (printed 'A432' in paragraph 253) after 0, 1, 4, 7 and 14 days in human serum at 37 C; upper panel
Experimental: Freshly collected human blood was incubated in polystyrene tubes without anticoagulant for 30 minutes at room temperature. The Serum was collected after centrifugation the blood at 4000 rpm for 10 minutes. Repeat the centrifugation until the serum was clarifying. Gently mix antibodies with serum and ensure the serum content >95%. The mix aliquots were incubated at 37° C. for 0 day, 1 day, 4 days, 7 days and 14 days, respectively. At the indicated time point the samples were quickly-frozen in liquid nitrogen and stored at −80° C. until analysis. The cell bindings of the serial dilutions of the antibody samples to A432 cells were analyzed by FACS. Four-parameter non-linear regression analysis was used to obtain EC₅₀ values for cell binding using GraphPad Prism 5 software (GraphPad Software, La Jolla, Calif.).

[20] = target: T1, human EGFR (cell surface); assay: FACS on cells carrying human EGFR
Experimental: as §2

T5 sequence (Q07011 24-186 limits assumed): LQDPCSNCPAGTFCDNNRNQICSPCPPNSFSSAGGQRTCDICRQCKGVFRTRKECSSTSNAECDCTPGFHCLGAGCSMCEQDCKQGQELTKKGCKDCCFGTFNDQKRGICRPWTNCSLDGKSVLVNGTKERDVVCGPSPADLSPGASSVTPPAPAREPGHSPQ
Sequence of CTLA4.his (P16410 36-161): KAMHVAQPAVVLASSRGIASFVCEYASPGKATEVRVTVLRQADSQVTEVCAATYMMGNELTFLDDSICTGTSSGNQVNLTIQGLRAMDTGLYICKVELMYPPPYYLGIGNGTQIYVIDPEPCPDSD
Sequence of OX40.his (P43489 29-214): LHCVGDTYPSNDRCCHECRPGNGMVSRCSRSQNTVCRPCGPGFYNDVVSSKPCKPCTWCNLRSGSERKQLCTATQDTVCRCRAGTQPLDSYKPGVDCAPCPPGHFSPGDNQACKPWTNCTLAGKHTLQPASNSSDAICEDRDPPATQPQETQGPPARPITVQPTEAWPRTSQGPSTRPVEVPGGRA
Sequence of CD40 (P25942 21-193): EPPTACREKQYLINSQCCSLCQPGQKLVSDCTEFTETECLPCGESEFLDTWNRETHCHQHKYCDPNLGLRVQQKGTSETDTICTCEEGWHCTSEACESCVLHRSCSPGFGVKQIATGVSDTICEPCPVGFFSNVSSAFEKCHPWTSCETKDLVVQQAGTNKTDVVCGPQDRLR
Sequence of PD-1.his (Q15116 25-170): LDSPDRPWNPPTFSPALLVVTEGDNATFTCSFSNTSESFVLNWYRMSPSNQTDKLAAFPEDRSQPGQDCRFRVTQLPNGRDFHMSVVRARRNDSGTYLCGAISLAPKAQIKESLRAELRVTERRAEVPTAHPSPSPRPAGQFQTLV

- IC50 (read off the curve) [1]: ~1 nM
- EC50 [2]: 1.08 nM
- IC50 (read off the curve) [3]: ~1 nM
B1: W5626-2C10.VHH (VHH)
VHH: AVQLVESGGGLVQAGGSLTLSCAASGRTFSSYAMGWFRQAPGKEREFVAADRWSGGNTRYADSVKGRFTISRDNAKNTVYLQMNSLKPEDTAVYYCAATYLSSDYEWGVPPKAYDYDYWGQGTQVTVSS
notes: c-Myc and his-tagged VHH fragment made in E. coli BL21; not shown: 6-his and c-Myc tags fused at the C-terminus

- binding result (HSA [4]): no binding (tested: 10 µg/ml)
- binding result (HER3.his [5]): no binding (tested: 10 µg/ml)
- binding result (4-1BB.his [6]): no binding (tested: 10 µg/ml)
- OD A450 (CD3.his): 0.04 OD A450
- OD A450 (VEGF.his): 0.05 OD A450
- OD A450 (HSA [7]): 0.05 OD A450
- OD A450 (CTLA4.his): 0.04 OD A450
- OD A450 (W317-hPro1.ECD.his): 0.05 OD A450
- OD A450 (CD40): 0.05 OD A450
- OD A450 (HER3.his [8]): 0.04 OD A450
- OD A450 (CD22.his): 0.05 OD A450
- OD A450 (Factor Eight): 0.04 OD A450
- OD A450 (FGFR.his): 0.05 OD A450
- OD A450 (4-1BB.his [9]): 0.05 OD A450
- OD A450 (OX40.his): 0.04 OD A450
- OD A450 (CD147): 0.04 OD A450
- OD A450 (PD-1.his): 0.04 OD A450
B2: W5626-2C10-z5 (VHH) (VHH)
VHH: B1 VHH with A14P, V79L, K87R, P88A, Q124L
notes: also called c-Myc and his-tagged VHH fragment of W5626-2C10-z5; not shown: c-Myc and his tags

- IC50 (read off the curve) [1]: ~2 nM
- EC50 [2]: 2.41 nM
- IC50 (read off the curve) [3]: ~1 nM
B3: W5626-2C2.VHH (VHH)
VHH: EVQLVESGGGLVQAGDSLRLSCAASGRTHSNYVMGWFRQAPGQEREFVAGISRTYGNTYYRDSVEGRFTISVDNPKNTVYLQMNSLKPEDTAVYYCAADPTRSEVILTTSHRYVYWGQGTLVTVSS
notes: as for B1

- binding result (HSA [4]): no binding (tested: 10 µg/ml)
- binding result (HER3.his [5]): no binding (tested: 10 µg/ml)
- binding result (4-1BB.his [6]): no binding (tested: 10 µg/ml)
- OD A450 (CD3.his): 0.06 OD A450
- OD A450 (VEGF.his): 0.07 OD A450
- OD A450 (HSA [7]): 0.07 OD A450
- OD A450 (CTLA4.his): 0.07 OD A450
- OD A450 (W317-hPro1.ECD.his): 0.07 OD A450
- OD A450 (CD40): 0.06 OD A450
- OD A450 (HER3.his [8]): 0.06 OD A450
- OD A450 (CD22.his): 0.06 OD A450
- OD A450 (Factor Eight): 0.05 OD A450
- OD A450 (FGFR.his): 0.05 OD A450
- OD A450 (4-1BB.his [9]): 0.06 OD A450
- OD A450 (OX40.his): 0.05 OD A450
- OD A450 (CD147): 0.06 OD A450
- OD A450 (PD-1.his): 0.06 OD A450
B4: W5626-2C2-z22 (VHH) (VHH)
VHH: B3 VHH with A14P, D16G, V72R, P75S, V79L, K87R, P88A
notes: also called c-Myc and his-tagged VHH fragment of W5626-2C2-z22; not shown: c-Myc and his tags

- IC50 [10]: 1.35 nM
- EC50 [11]: 0.25 nM
- Kd [12]: 3.22 nM
- koff [12]: 0.00209 s⁻¹
- kon [12]: 649000 M⁻¹ s⁻¹
- Bmax [13]: 1 nM
- Kd [13]: 0.51 nM
- Bmax [14]: 860 pM
- Kd [14]: 1.1 nM
- Bmax [15]: 530 pM
- Kd [15]: 0.24 nM
- Bmax [16]: 230 pM
- Kd [16]: 0.26 nM
- EC50 [17]: 0.65 nM
- IC50 of inhibition of EGFR phosphorylation (pEGFR sandwich ELISA, A431 cells stimulated with EGF) [18]: 22.6 nM and 10.4 nM
- EC50 (read off the curve) [19]: ~0.9 nM
- EC50 [20]: 0.83 nM
B5: W5626-2C2-z22 (humanized VHH of W5626-2C2 further comprising a human Fc of IgG1 isotype) (Fc fusion)
chain: B3 VHH with A14P, D16G, V72R, P75S, V79L, K87R, P88A
notes: Bivalent humanized VHH linked with human IgG1 Fc region; not shown: human IgG1 Fc region from a modified pcDNA3.3 vector
- EC50 of EGFR internalization (Fab-ZAP, viability of A431 cells) [18]: 0.17 nM
